Several values for one entry are separate records, joined by “and”; a condition that tells them apart may be missing. Equal values may be shown once.

The target of the assay is MCL-1ES, wild type (amino acids 1-197), Flag-tagged (human). The assay can be described thus: cross-linking; 293T cells; heavy membrane fraction cross-linked with glutaraldehyde, western blot; increasing MCL-1ES expression; also with MCL-1L over-expressed or knocked down. (A western blot detects proteins with antibodies after separation by electrophoresis.)

For the substance “MCL-1ES, wild type (amino acids 1-197), Flag-tagged (natural protein)”, the stoichiometry N – broadly, a count of units in the complex or per binding partner – is 2 and 3.

The values are drawn from paper PMC3832543.
